B1: standard peptide QRAFNKGPDP (PRO-C9 target sequence, C-terminus of type IX collagen alpha-1 chain) (peptide)
peptide: QRAFNKGPDP
notes: Synthetic peptide from Genscript with a free C-terminus; also called selection peptide
B2: monoclonal antibody clone NBH313 #46 9H11-1D9-2B6 (antibody, V domains shown)
VH: EVQLVESGGGLVQPKGSLKLSCAASGFTFNIYTMNWVRQAPGKGLEWVARIRSKSENYATYYADSVKDRFTISRDDSQSILYLQMNNLKTEDTAIYYCVRQGIYYDYYGAMDYWGQGTSVTVSS
VL: NIMMTQSPSSLAVSAGEKATMSCKSSQSLLYSSNQMNYLAWYQQKPGQSPKLLIYWASTRESDVPDRFTGSGSGTDFTLTISSVQTEDLAVYYCHQYFSSRTFGGGTKLEIKR
notes: Mouse (Balb/C) hybridoma monoclonal antibody; also called PRO-C9 antibody; the mAb

Test [1] addresses B2. Put plainly: competitive CLIA: free standard peptide against coated Biotin-… for HRP-labelled antibody. The protocol:
Next, 20 μL/well of standard peptide (100 ng/mL) and samples were added to the appropriate wells, followed by the addition of 100 μL/well of HRP-labelled antibody diluted in assay buffer to the concertation of 100 ng/mL and incubated for 20 h at 4° C. with constant shaking (300 rpm) in darkness. After each incubation step, wells were washed with standard washing buffer (20 mM Tris, 50 mM NaCl, pH 7.2). The chemiluminescence substrate (Roche, BM Chemiluminescence ELISA substrate (POD), Basel, Switzerland) working solutions were mixed 15 min before use and 100 μL/well were added to plate and incubated for 3 min at 20° C. with constant shaking (300 rpm) in darkness. The relative light units were measured at all wavelengths within 5 min on a microplate luminometer reader (SpectraMax M5, Molecular Devices, CA, USA).
Accuracy of the assay was measured in healthy human serum samples spiked with standard peptide and a serum sample with a known high PRO-C9 concentration and calculated as the percentage recovery of the measured value and the expected concentration of the peptide or the serum sample with high PRO-C9 plus the concentration of the analyte in serum. […] Recovery percentage was calculated with the normal serum sample as reference. […] The interference was calculated as the percentage recovery of the analyte in non-spiked serum. […]

The target in test [2] is T1, non-sense coating and standard peptide DQAAGGLRQH
T1 construct: also called non-sense peptide; non-sense standard peptide
T1 peptide: DQAAGGLRQH
The experiment in a line: competitive CLIA, non-sense peptide tested as free standard and as coater. The method, then: (§1) The development of the competitive chemiluminescence immunoassay (CLIA) included several preliminary optimizing experiments where reagents, concentrations, incubation-time and -temperature were analysed by several tests. The PRO-C9 competitive ELISA procedure was as follows: A 96-well streptavidin-coated white microplate (Greiner Bio-One, Kremsminster, Austria) was coated with 5 ng/mL biotinylated synthetic peptide (Biotin-[…] SEQ ID No. 18) dissolved in assay buffer (10 mM phosphate buffered saline (PBS), 1% bovine serum albumin, 0.1% Tween-20, 0.36% Bronidox, 4 g/L NaCl, adjusted to pH 7.4 at 20° C.) and incubated for 30 min at 20° C. with constant shaking (300 rpm) in darkness.
(§2) Next, 20 μL/well of standard peptide (100 ng/mL) and samples were added to the appropriate wells, followed by the addition of 100 μL/well of HRP-labelled antibody diluted in assay buffer to the concertation of 100 ng/mL and incubated for 20 h at 4° C. with constant shaking (300 rpm) in darkness. After each incubation step, wells were washed with standard washing buffer (20 mM Tris, 50 mM NaCl, pH 7.2). […] The relative light units were measured at all wavelengths within 5 min on a microplate luminometer reader (SpectraMax M5, Molecular Devices, CA, USA).
(§3) Two-fold dilutions of four human serum samples were used to assess linearity. Linearity was calculated as a percentage of recovery of the undiluted sample. […]

The target in test [3] is B1. The experiment in a line: ELISA screening of hybridoma clones. The protocol: An indirect ELISA performed on streptavidin-coated plates was used for the screening of supernatant reactivity. Biotin-[…] was used as screening peptide, while the standard peptide […] was used to further test the specificity of the clones. Supernatant was collected from the hybridoma cells and purified using HiTrap affinity columns (GEHealthcare Life Science, Little Chalfront, Buckinghamshire, UK) according to manufacturer instructions and antibody isotype was determined using Rapid ELISA Mouse monoclonal antibody Isotyping Kit (Invitrogen, Carlsbad, CA, USA) following the manufacturer's protocol.
On the technique in general: An ELISA detects its analyte on a solid surface through an enzyme-linked reagent.

Test [4] has as its target T2, truncated peptide QRAFNKGPD
T2 construct: also called truncated selection peptide
T2 peptide: QRAFNKGPD
Put plainly: competitive CLIA, signal inhibition by two-fold diluted peptide. The method, then: as §1, §2, §3

Test [5] concerns the target T3, elongated peptide QRAFNKGPDPG
T3 construct: also called elongated selection peptide
T3 peptide: QRAFNKGPDPG
The test is described as above. The method, then: as §1, §2, §3

Usually IC50 stands for the concentration that inhibits the measured activity by half. A high value points to a need for much substance. B1 came in with an IC50 in test [1] of 3.62 ng/mL.

As to B2, the binding result in test [2] is “no binding”; in test [3] it was “binds”; in test [4], “no binding”; in test [5], “no binding”.
